Our source for the stoichiometry N values is PMC7865249.

Experiment [1] deals with H111A HupZ-V5-His6 (Streptococcus pyogenes (Group A Streptococcus)). Put plainly: SEC; ligand-free protein, 200 uM, 1 mL injected; Superdex Increase 200 10/300 GL, 20 mM Tris-HCl, 50 mM NaCl, pH 7.4, 0.4 mL/min; mass from a calibration curve of standards.
Experiment [2] has the same target. Briefly: SEC; protein reconstituted with 1.2 eq hemin and desalted, 200 uM, 1 mL injected; Superdex Increase 200 10/300 GL, 20 mM Tris-HCl, 50 mM NaCl, pH 7.4, 0.4 mL/min; mass from a calibration curve of standards. In general terms: SEC sorts molecules by how far they enter the pores of the column.
Experiment [3] concerns the target HupZ-V5-His6 (heme utilization protein Z with a C-terminal V5-His6 tag) (Streptococcus pyogenes (Group A Streptococcus)). Briefly: SEC; ligand-free protein, 200 uM, 1 mL injected; Superdex Increase 200 10/300 GL, 20 mM Tris-HCl, 50 mM NaCl, pH 7.4, 0.4 mL/min; mass from a calibration curve of standards.
Experiment [4] has the same target. Put plainly: SEC; protein reconstituted with 1.2 eq hemin and desalted, 200 uM, 1 mL injected; Superdex Increase 200 10/300 GL, 20 mM Tris-HCl, 50 mM NaCl, pH 7.4, 0.4 mL/min; mass from a calibration curve of standards.

As a reminder, the stoichiometry N is the number of molecules, sites or subunits per partner or assembly. For H111A HupZ-V5-His6 (natural protein), the stoichiometry N in experiment [1] and in experiment [2] was 2 each time.

“HupZ-V5-His6 (heme utilization protein Z with a C-terminal V5-His6 tag) (natural protein)”: the stoichiometry N in experiment [3] and in experiment [4] was 2 each time.
